In patent US20170189489A1, “CARDIAC MUSCLE FUNCTION AND MANIPULATION” (Zensun (Shanghai) Science & Technology, Co., Ltd., priority 1998, published 2017):
Entries after “also recorded” stand apart in the source; their conditions may differ.

Tests used:
[1] = system: ventricular muscle cells; details: cited from earlier work; for hypertrophy score (maximal increase in cell size): scale 7 to 0, 3 = non-stimulated cells, 7 = fully hypertrophied
[2] = system: neonatal rat cardiac muscle cells; experiment: Sarcomeric and cytoskeleton structures and MHC-α expression of cultured neonatal rat cardiac muscle cells; format: cell-based; details: for sarcomeric and cytoskeleton structures, cell-cell adhesions: single agent, Phalloidin and anti-α-actinin staining
Experimental: By using primary cultured myocardial cells as a model system, the present inventor evaluated neuregulin signalling in cardiac myocyte differentiation, maturation and assembly or maintenance of sarcomeric and cytoskeleton structures. To assay the neuregulin effect on cell signalling, embryonic cardiac muscle cells were incubated with recombinantly purified human neuregulin ligand (rhNRGβ2). […] Such an effect was not found from the cells stimulated with either insulin IGF-1 or PE. […] These findings indicate that NRG function through two distinct pathways: one activated at lower ligand concentrations results in cardiomyocyte growth, whereas the other, activated with higher concentrations, is mediated by sustained activation of the MAP kinase pathway and results in terminal differentiation and maturation.
(§1) Myocardial cells were plated in 2-well Novex plates (Nunc), and cultured with or without rhNRGβ2 in serum-free DMEM medium for 24-48 hour. After rinsing the cells with PBS, they were fixed with 4% paraformaldehyde and 0.1% Triton X-100 at room temperature for 30 minutes. The fixed cells were then blocked with 5% skim milk in PBS for 1 hr, followed by incubation with an anti-α-actinin monoclonal antibody (Sigma), for 45 minutes at room temperature. After washing, anti-mouse IgG conjugated with FITC (Sigma) was added and the cells were incubated for another half hour. For phalloidin staining, cells were fixed with 4% formadehyde for 1 hr, washed, and stained with phalloidin buffer (100 μl PBS, 10 μl rhodarmine phalloidin (6.6 μM in MeOH)) for 1 hr. After PBS washing, cells were mounted with 1% p-phenylenediamine (1 mg/ml, Sigma) in glycerol, and then covered and sealed. Cells were examined using a UV fluorescent microscope and photographed with a 40× power objective.

[3] = system: p21^CIP1; experiment: p21^CIP1 protein expression in embryonic cardiac muscle cells (immunoblot); format: cell-based, mouse
Experimental: (§2) Mouse embryos (E11.5-12.5) were used to prepare primary cardiac myocytes. Heart tissue was isolated aseptically from embryos. Myocardial cells were isolated by collagenase digestion and separated from non cardiomyocytes by preattachments on culture dishes that was performed three times. Cells were then cultured as described previously. Using this method, it was routinely possible to obtain primary cultures with >90% myocytes.
Embryonic myocardial cells cultured in serum-free or 5% FBS medium were stimulated with various concentrations of rhNRGβ2 with or without the MEK inhibitor, PD98059, for 24 or 48 hrs, harvested as described above and subjected to immunoblot analysis using an anti-p21^CIP1 antibody (1:100). The same amount of protein was loaded into each well of a SDS polyacrylamide gel. After immunoblotting, the membrane was stripped and probed further with an antibody to the ErbB2 receptor for normalisation of protein loading.

[4] = system: p42/p44 MAP kinases; experiment: p42/p44 MAP kinase phosphorylation in embryonic cardiomyocytes (immunoblot); format: cell-based, mouse
Experimental: as §2
(§3) Embryonic myocardial cells were cultured in serum-free medium for at least 24 hrs and then stimulated with rhNRGβ2 or IGF-I for various times. Stimulation was terminated by washing cells rapidly with cold PBS. To block the MAP kinase activation, the MEK inhibitor, PD98059, was added to the medium 30 mins prior to the administration of rhNRGβ2 or IGF-I. Cells were then harvested as previously described for Western blot analysis with HRPO-conjugated monoclonal antibody RC20H (1:2,000) for detection of phosphorylated ErbB receptors, or a phospho-specific p42/p44 MAP kinase antibody (dilution ratio 1:1,000) for detection of phosphorylated MAP kinases. The same amount of cell extract protein was loaded into each lane and separated by SDS-PAGE. Immunobloting with an anti-ErbB receptor or anti-p42/44 MAP kinase antibodies was also used to normalise for protein loading. MAP-kinase (p42/p44) activity was measured using a p42/44 MAP kinase enzyme assay kit (RPN84; Amersham, Bucks, U.K.) according to the manufacturer's instructions.

[5] = system: embryonic mouse cardiomyocytes; experiment: DNA synthesis ([3H] thymidine incorporation) in cultured embryonic mouse cardiomyocytes; format: cell-based; details: for effect on IGF-I (10^−9M)-stimulated DNA synthesis: 20 hrs
Experimental: as §2
Embryonic myocardial cells were cultured with rhNRGβ2 or IGF-I containing serum-free DMEM for 20 hrs. [methyl-^3H] Thymidine (0.5 μCi/well) was added and cells were then cultured for a further 12 hrs. After rinsing twice with cold PBS, once with ice-cold 10% trichloroacetic acid, and then five times with ice-cold PBS, the cells were dissolved in 100 μl of 1% SDS, and counted in a liquid scintillation counter.
(§4) All of the above assays were repeated at least three times for each experiments. Data for DNA synthesis and MAP kinase activity are presented as the mean±S.E of five replicate samples. Statistical significance was determined by ANOVA using the SAS statistical package with P<0.05 being considered significant. Immunoblots were quantitated by densitometry analysis with the intensity of the evaluated protein bands being shown below the blots as the fold changes over control (see FIGs).

[6] = system: E12.5 mouse cardiac muscle cells; experiment: Sarcomeric and cytoskeletal structure of embryonic mouse cardiac muscle cells (phalloidin and anti-α-actinin staining); format: cell-based; details: for sarcomeric actin reorganisation and contractile unit assembly: 48 hrs, serum-free
Experimental: as §2, §1

[7] = system: p42/p44 MAP kinases; experiment: MAP kinase catalytic activity in extracts of treated cardiomyocytes (p42/44 MAP kinase enzyme assay kit); format: cell-based, mouse
Experimental: as §2
Embryonic myocardial cells were cultured in serum-free medium for at least 24 hrs and then stimulated with rhNRGβ2 or IGF-I for various times. Stimulation was terminated by washing cells rapidly with cold PBS. […] MAP-kinase (p42/p44) activity was measured using a p42/44 MAP kinase enzyme assay kit (RPN84; Amersham, Bucks, U.K.) according to the manufacturer's instructions.
as §4, with “Data for DNA synthesis and MAP kinase activity are presented as the mean±S.E of five replicate samples.” left out

[8] = molecular target: T1, ErbB2 and ErbB4 receptors (Mus musculus, UniProt Q61527); experiment: ErbB receptor phosphorylation in embryonic cardiomyocytes (Western blot / immunoprecipitation); format: cell-based
T1 construct: ErbB2 and ErbB4 are most abundantly expressed in cardiac myocytes; endogenous in cells; host or cells: primary embryonic (E11.5-12.5) mouse cardiac myocytes
T1 sequence (Q61527 26-1308): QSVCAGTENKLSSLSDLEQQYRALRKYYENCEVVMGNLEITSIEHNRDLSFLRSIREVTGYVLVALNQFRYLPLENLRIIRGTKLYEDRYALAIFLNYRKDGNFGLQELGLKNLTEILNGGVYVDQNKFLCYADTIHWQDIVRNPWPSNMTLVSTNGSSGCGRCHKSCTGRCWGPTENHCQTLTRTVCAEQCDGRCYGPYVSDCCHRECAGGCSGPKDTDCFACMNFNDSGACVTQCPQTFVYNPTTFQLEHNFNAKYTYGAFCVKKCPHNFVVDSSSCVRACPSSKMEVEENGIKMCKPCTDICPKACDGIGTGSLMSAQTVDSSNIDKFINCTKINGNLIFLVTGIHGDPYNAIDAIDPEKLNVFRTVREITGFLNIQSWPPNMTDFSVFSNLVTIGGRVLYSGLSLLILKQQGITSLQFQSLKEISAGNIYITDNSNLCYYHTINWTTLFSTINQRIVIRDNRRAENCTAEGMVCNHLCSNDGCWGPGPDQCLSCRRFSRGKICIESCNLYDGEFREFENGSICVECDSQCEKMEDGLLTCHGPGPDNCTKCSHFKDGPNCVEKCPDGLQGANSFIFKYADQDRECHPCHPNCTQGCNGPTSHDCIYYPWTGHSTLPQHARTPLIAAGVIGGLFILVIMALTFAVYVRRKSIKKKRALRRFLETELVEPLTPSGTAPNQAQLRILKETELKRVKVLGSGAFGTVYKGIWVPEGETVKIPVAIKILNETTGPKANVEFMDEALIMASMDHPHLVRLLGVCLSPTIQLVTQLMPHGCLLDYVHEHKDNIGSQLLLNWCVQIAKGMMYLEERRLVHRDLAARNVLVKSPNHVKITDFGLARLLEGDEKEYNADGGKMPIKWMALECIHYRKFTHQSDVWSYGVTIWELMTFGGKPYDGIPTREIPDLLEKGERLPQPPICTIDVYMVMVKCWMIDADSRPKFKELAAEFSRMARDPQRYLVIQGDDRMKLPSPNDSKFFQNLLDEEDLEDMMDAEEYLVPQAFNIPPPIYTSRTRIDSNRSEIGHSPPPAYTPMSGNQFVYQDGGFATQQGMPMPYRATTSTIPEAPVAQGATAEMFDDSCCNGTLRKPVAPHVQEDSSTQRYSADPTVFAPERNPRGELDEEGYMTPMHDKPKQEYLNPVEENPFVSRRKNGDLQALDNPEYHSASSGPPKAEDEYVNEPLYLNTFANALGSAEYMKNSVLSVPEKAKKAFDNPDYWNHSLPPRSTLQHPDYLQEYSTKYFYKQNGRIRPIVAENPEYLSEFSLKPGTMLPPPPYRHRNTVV
T1 sequence (P70424 23-1256 partner): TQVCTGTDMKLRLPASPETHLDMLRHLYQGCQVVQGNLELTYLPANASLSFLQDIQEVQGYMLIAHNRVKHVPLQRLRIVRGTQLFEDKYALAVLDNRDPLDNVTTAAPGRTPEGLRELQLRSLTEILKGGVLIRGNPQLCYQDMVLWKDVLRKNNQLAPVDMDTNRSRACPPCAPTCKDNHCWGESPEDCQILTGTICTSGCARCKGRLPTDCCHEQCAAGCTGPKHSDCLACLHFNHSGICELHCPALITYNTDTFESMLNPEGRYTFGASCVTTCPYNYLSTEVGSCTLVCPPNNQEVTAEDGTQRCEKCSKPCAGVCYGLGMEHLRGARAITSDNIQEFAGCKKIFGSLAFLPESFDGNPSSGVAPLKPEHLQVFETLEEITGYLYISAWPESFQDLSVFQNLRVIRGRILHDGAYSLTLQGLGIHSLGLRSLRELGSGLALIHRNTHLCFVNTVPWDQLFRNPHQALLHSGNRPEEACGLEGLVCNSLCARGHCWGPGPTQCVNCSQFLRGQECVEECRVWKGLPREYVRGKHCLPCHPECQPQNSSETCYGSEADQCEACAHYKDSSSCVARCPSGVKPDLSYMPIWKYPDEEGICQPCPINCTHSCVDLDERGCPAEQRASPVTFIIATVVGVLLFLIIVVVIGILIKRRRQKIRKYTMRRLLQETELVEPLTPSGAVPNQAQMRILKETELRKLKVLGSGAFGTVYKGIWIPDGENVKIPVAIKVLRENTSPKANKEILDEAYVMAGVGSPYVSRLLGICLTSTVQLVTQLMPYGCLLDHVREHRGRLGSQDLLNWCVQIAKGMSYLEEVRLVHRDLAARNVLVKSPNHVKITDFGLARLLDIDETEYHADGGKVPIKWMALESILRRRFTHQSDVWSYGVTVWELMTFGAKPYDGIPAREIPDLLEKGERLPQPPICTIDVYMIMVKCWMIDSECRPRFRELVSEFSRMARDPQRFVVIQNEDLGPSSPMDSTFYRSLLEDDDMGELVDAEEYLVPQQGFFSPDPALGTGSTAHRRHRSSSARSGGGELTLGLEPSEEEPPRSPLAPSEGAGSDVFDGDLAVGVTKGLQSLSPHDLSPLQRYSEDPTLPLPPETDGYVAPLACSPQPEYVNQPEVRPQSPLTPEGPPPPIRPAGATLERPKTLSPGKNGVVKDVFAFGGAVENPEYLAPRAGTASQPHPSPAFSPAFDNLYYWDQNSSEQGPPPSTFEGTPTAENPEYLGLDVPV
Experimental: as §2
as §3, with “Immunobloting with an anti-ErbB receptor or anti-p42/44 MAP kinase antibodies was also used to normalise for protein loading.” left out

[9] = system: MCF-7 breast cancer cell ErbB receptors; experiment: Stimulation of MCF-7 breast cancer cell ErbB receptors (activity check of purified protein); format: cell-based; details: ligand 10^−12M to 10^−8M, MCF-7 cells
Description: A cDNA encoding the EGF-like domain of human NRGβ2 isoform (rhNRGβ2, residues 177-237, was inserted into the pFLAG1 expression vector (IBI) (a gift from Dr. Rodney J. Fiddes, Co-operative Research Centre for Biopharmaceutical Research, Australia). rhNRGβ2 with a FLAG-peptide attached at its N-terminus, was expressed in the periplasmic space of E. coli DH5α, and purified by affinity chromatography using anti-FLAG M1 monoclonal antibody according to the manufacturer's instructions. The purity of rhNRGβ2 was more than 90% as evidenced by SDS-PAGE separation and Coomassie Blue staining of purified protein samples. The concentration of purified proteins was determined using a Bio-Rad protein assay kit. Activity of the purified proteins was assayed by stimulation of MCF-7 breast cancer cell ErbB receptors with various ligand doses.

[10] = system: sarcomeric myosin heavy chains; experiment: Sarcomeric myosin heavy chain and sarcomeric actin expression in embryonic mouse cardiac muscle cells (immunoblot); format: cell-based; details: rhNRGβ2-stimulated
Experimental: FIGS. 6A-6B. Effects of NRG on cardiac sarcomere assembly and myosin heavy chains expression. FIG. 6A. E12.5 mouse cardiac muscle cells were cultured in serum-free medium (control) or stimulated with 10^−10 or 10^−8M rhNRGβ2 (NRG) for 48 hrs. Cells were then stained with phalloidin (left panels) or evaluated for anti-α-actinin immunoflorescency (right panels). FIG. 6B. Sarcomeric myosin heavy chain α-actin expression rhNRGβ2-stimulated embryonic mouse cardiac muscle cells were evaluated by immunoblot analysis using an anti-sarcomeric myosin heavy chain antibody (MF20) or an anti-α-actinin antibody. The same amount of whole cell extracts (20 μg proteins) was loaded into each lane for SDS-PAGE fractionation.
as §2

Q: For CNC[C@H](O)c1cccc(O)c1 [PE, phenylephrine], which “surface area/cell of fully hypertrophied cells” value ([1]; non-exposed cells 581 μm^2) is on record?
A: 1811 μm^2

Q: And the “hypertrophy score (maximal increase in cell size)” value [1]?
A: 7

Q: And the “sarcomeric and cytoskeleton structures, cell-cell adhesions” value (shortened to “sarcomeric and cytoskeleton structures”) [2]?
A: not found

Q: With CC[C@H](C)[C@H](NC(=O)[C@H](CC(=O)O)NC(=O)[C@H](CC(C)C)NC(=O)[C@H](Cc1c[nH]cn1)NC(=O)[C@@H]1CSSC[C@H](N)C(=O)N[C@@H](CO)C(=O)N[C@H]2CSSC[C@H](NC(=O)[C@H](CCC(=O)O)NC(=O)[C@H](CCCCN)NC(=O)[C@H](CC(=O)O)NC(=O)[C@H](CCSC)NC(=O)[C@H](CC(C)C)NC(=O)[C@H](CO)NC(=O)[C@H](CO)NC2=O)C(=O)N[C@@H](C(C)C)C(=O)N[C@@H](Cc2ccc(O)cc2)C(=O)N[C@@H](Cc2ccccc2)C(=O)N1)C(=O)N[C@H](C(=O)N[C@@H](Cc1c[nH]c2ccccc12)C(=O)O)[C@@H](C)CC [endothelin] as the molecule, how does the “hypertrophy score (maximal increase in cell size)” value [1] read?
A: ~5

Q: With “IGF-I: recombinant human insulin-like growth factor I, commercially obtained (Boehringer)” as the molecule, how does the “p21^CIP1 expression” value ([3]; IGF-I 10^−10M or 10^−8M) read?
A: did not stimulate p21^CP1 expression

Q: What about the “MAP kinase phosphorylation time course” value ([4]; IGF-I low (10^−9M) and high (10^−8M or 10^−7M) concentrations) of the same molecule?
A: transient

Q: And the DNA synthesis response ([5]; concentrations ranging from 10^−11M to 10^−7M)?
A: only a proliferative response

Q: What about the “sarcomeric and cytoskeleton structures” value [2] of the same molecule?
A: not found

Q: For COc1cccc(-c2cc(=O)c3ccccc3o2)c1N [PD98059, reference compound], which “effect on p21^CIP1 expression induced by 10^−8M rhNRGβ2” value ([3]; PD98059 50 μM, presence or absence of serum) is on record?
A: blocked the increase in p21^CIP1 expression

Q: What about the “effect on NRG-induced increase in p42/44 MAP kinase phosphorylation” value ([4]; PD98059 added 30 mins before, cells stimulated 5 min) of the same molecule?
A: blocked

Q: And the “sensitivity of rhNRGβ2 effects on cardiomyocytes to MEK1 inhibition” value ([6]; PD98059)?
A: sensitive to MEK1 inhibition

B1: rhNRGβ2: EGF-like domain of human NRGβ2 isoform, residues 177-237 (SEQ ID NO: 2), FLAG-peptide at N-terminus, expressed in E. coli DH5α (protein, listed as Homo sapiens)
chain: {FLAG}-SHLVKCAEKEKTFCVNGGECFMVKDLSNPSRYLCKCPNEFTGDRCQNYVMASFYKAEELYQ
modifications: also: recombinant protein expressed in E. coli
Q: Which “duration of enhanced p21^CIP1 expression” value ([3]; 10^−8M) does the source give for B1 here?
A: at least 24 hours

Q: What about the “p21^CIP1 expression” value ([3]; 10^−8M (higher concentration), serum-free or 5% FBS, 24 hrs) of the same molecule?
A: increase in p21^CIP1 expression; also recorded: enhanced

Q: And the “duration of p42/p44 MAP kinase phosphorylation” value ([4]; 10^−8M (higher dose))?
A: at least 21 hours

Q: What about the “MAP kinase activation (phosphorylation) time course” value ([4]; 10^−10M (lower ligand concentration), fell to basal level in less than three hours) of the same molecule?
A: only transient activation

Q: What about the “MAP kinase phosphorylation time course” value ([4]; combination of IGF-I (10^−9M) and rhNRGβ2 (10^−8M)) of the same molecule?
A: sustained MAP kinase phosphorylation

Q: What about the “duration of MAP kinase catalytic activity” value ([7]; 10^−8M) of the same molecule?
A: at least 21 hours

Q: And the “MAP kinase catalytic activity time course” value ([7]; 10^−10M)?
A: only transient

Q: And the “effect on IGF-I (10^−9M)-stimulated DNA synthesis” value ([5]; 10^−8M NRG)?
A: significantly blocked the IGF-I response

Q: What about the “effect on IGF-I (10^−9M)-stimulated DNA synthesis” value ([5]; 10^−10M NRG) of the same molecule?
A: little effect

Q: And the “DNA synthesis response versus control (vehicle)” value ([5]; all concentrations except 10^−7M, P<0.001, 20 hr)?
A: significantly greater than control

Q: And the DNA synthesis ([5]; ligand concentrations >10^−10M)?
A: decreased

Q: And the “increase in DNA synthesis” value ([5]; rhNRGβ2 at 10^−10, 20 hr treatment, embryonic mouse cardiomyocytes (E11.5-12.5))?
A: approximately 2 fold

Q: What about the “sarcomeric actin reorganisation and contractile unit assembly” value ([6]; 10^−8M) of the same molecule?
A: stimulated both sarcomeric actin reorganisation (phalloidin staining) and cardiac contractile unit assembly

Q: What about the “sarcomeric actin reorganisation and contractile unit assembly” value ([6]; 10^−10M) of the same molecule?
A: much less evident

Q: And the “phosphorylation of 180-185 kDa proteins corresponding to ErbB2/ErbB4 receptors” value ([8]; 10^−8M compared with 10^−10M, cell lysates)?
A: a higher level of phosphorylated 180-185 kDa proteins

Q: And the “phosphorylation of immunoprecipitated ErbB2 and ErbB4” value ([8]; 5 min stimulation, 10^−10M or 10^−8M)?
A: dependent on rhNRβ2 concentrations

Q: What about the ErbB receptor phosphorylation [9] of the same molecule?
A: increased ErbB receptor phosphorylation with increasing ligand concentration

Q: What about the “improvement of sarcomeres and cell-cell adhesions” value ([2]; 10^−8M concentration) of the same molecule?
A: maximal effect

Q: What about the “cell structures when mixed with either IGF-1 or PE” value ([2]; rhNRGβ2 mixed with IGF-1 or PE) of the same molecule?
A: improved the cell structures

Q: And the “sarcomeric and cytoskeleton structures” value [2]?
A: dramatically improved sarcomeric and cytoskeleton structures, as well as cell-cell adhesions

Q: And the “MHC-α expression under PE stimulation” value ([2]; with PE)?
A: overrode the negative regulation of MHC-α expression

Q: What about the “expression of sarcomeric myosin heavy chains” value ([10]; MF20 immunoblot) of the same molecule?
A: enhanced expression of sarcomeric myosin heavy chains

Q: And the sarcomeric actin expression ([10]; immunoblot)?
A: remained unchanged
